Measurements from patent US20110319324A1.

Legend:
[1] = biological target: ErbB1 receptor (EGF receptor) on HeLa cells (UniProt P00533); assay: cell-based or functional assay
[2] = biological target: EGF receptor (ErbB1) on HeLa 229 cells (UniProt P00533); assay: cell-based or functional assay

PEGylated betacellulin produced using the mPEG-ButyrALD-20K reagent, sequence (P35070 other isoform, or with tags, fused parts or gaps limits assumed): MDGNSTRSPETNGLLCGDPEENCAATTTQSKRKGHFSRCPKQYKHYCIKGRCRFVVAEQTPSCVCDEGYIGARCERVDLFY
PEGylated betacellulin produced using the mPEG-SMB-20K reagent, sequence (P35070 other isoform, or with tags, fused parts or gaps limits assumed): as above
Unreacted (SEC fraction of the PEGylation reactions, presumably unreacted betacellulin), sequence (P35070 other isoform, or with tags, fused parts or gaps limits assumed): as above

| betacellulin activity in the phospho-EGFR pY1068 ELISA on HeLa 229 cells (fold lower than unreacted betacellulin) [1] | ELISA activity is equivalent to [BTC] nM (phospho-EGFR pY1068 ELISA, HeLa 229 cells; 40 nM submitted; SEC column S200) [2] [nM] | activity % (phospho-EGFR pY1068 ELISA, HeLa 229 cells) [2] [%] | activity % (phospho-EGFR pY1068 ELISA, HeLa 229 cells; SEC column S200) [2] [%] | betacellulin activity in the phospho-EGFR pY1068 ELISA on HeLa 229 cells ([1]; scale: % reduction against unreacted betacellulin) | ELISA activity is equivalent to [BTC] nM (phospho-EGFR pY1068 ELISA, HeLa 229 cells; 40 nM submitted; SEC column S70) [2] [nM] | Substance |
| --- | --- | --- | --- | --- | --- | --- |
| 3 | 14 | 26 | 34 | – | – | PEGylated betacellulin produced using the mPEG-SMB-20K reagent (from UniProt P35070 32-111) (ligand) |
| – | – | 58 | 55 | < 50 | – | PEGylated betacellulin produced using the mPEG-ButyrALD-20K reagent (from UniProt P35070 32-111) (ligand) |
| – | – | 0 | – | – | 0 | Unreacted (SEC fraction of the PEGylation reactions, presumably unreacted betacellulin) (from UniProt P35070 32-111) (ligand) |
